Source: article PMC8373075 (Nucleic Acids Research, 2021)

Molecular target: T1, FLAG-CTIF-F460A (human, UniProt O43310 1-598, F460A)
T1 sequence (looked up): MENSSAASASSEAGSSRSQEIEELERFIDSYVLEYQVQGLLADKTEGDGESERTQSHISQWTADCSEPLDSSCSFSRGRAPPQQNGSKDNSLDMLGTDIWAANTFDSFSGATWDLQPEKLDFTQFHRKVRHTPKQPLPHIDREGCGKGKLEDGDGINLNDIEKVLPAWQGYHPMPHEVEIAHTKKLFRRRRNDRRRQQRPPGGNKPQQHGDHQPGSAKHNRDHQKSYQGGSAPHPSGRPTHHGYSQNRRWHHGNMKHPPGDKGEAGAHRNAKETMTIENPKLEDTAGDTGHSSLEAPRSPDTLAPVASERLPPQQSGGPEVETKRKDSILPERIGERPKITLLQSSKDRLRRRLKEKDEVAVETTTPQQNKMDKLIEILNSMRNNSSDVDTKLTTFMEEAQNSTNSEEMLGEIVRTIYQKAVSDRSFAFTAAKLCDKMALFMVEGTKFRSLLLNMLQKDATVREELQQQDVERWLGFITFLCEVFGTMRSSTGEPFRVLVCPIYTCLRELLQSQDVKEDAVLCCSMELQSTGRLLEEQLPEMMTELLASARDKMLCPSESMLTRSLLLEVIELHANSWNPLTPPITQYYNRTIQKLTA
Test: co-IP

fold change of the co-immunoprecipitated amount against the IP of CTIF-WT: ~2.8 fold
B1: endogenous CBP80 (natural protein, human (endogenous in HEK293T), UniProt Q09161 1-790, looked up)
chain: MSRRRHSDENDGGQPHKRRKTSDANETEDHLESLICKVGEKSACSLESNLEGLAGVLEADLPNYKSKILRLLCTVARLLPEKLTIYTTLVGLLNARNYNFGGEFVEAMIRQLKESLKANNYNEAVYLVRFLSDLVNCHVIAAPSMVAMFENFVSVTQEEDVPQVRRDWYVYAFLSSLPWVGKELYEKKDAEMDRIFANTESYLKRRQKTHVPMLQVWTADKPHPQEEYLDCLWAQIQKLKKDRWQERHILRPYLAFDSILCEALQHNLPPFTPPPHTEDSVYPMPRVIFRMFDYTDDPEGPVMPGSHSVERFVIEENLHCIIKSHWKERKTCAAQLVSYPGKNKIPLNYHIVEVIFAELFQLPAPPHIDVMYTTLLIELCKLQPGSLPQVLAQATEMLYMRLDTMNTTCVDRFINWFSHHLSNFQFRWSWEDWSDCLSQDPESPKPKFVREVLEKCMRLSYHQRILDIVPPTFSALCPANPTCIYKYGDESSNSLPGHSVALCLAVAFKSKATNDEIFSILKDVPNPNQDDDDDEGFSFNPLKIEVFVQTLLHLAAKSFSHSFSALAKFHEVFKTLAESDEGKLHVLRVMFEVWRNHPQMIAVLVDKMIRTQIVDCAAVANWIFSSELSRDFTRLFVWEILHSTIRKMNKHVLKIQKELEEAKEKLARQHKRRSDDDDRSSDRKDGVLEEQIERLQEKVESAQSEQKNLFLVIFQRFIMILTEHLVRCETDGTSVLTPWYKNCIERLQQIFLQHHQIIQQYMVTLENLLFTAELDPHILAVFQQFCALQA
